# Experimental data reported in PMC3299563, “Salt Bridges Regulate Both Dimer Formation and Monomeric Flexibility in HdeB and May Have a Role in Periplasmic Chaperone Function” (Journal of Molecular Biology, 2011).
# B1: HdeB D76N (natural protein, E. coli, UniProt P0AET2 30-108, looked up)
# chain: ANESAKDMTCQEFIDLNPKAMTPVAWWMLHEETVYKGGDTVTLNETNLTQIPKVIEYCKKNPQKNLYTFKNQASNDLPN
# notes: HdeB, E. coli, with D76N; residue numbers count on the precursor; Probably made from the HdeB-His6 construct; also called D67N (as printed in two places)
# B2: HdeB (methylated) (natural protein, E. coli, UniProt P0AET2 30-108, looked up)
# chain: ANESAKDMTCQEFIDLNPKAMTPVAWWMLHEETVYKGGDTVTLNETDLTQIPKVIEYCKKNPQKNLYTFKNQASNDLPN
# modifications: reductively methylated lysines: doubly methylated K48, K88 and K93; some modification of K35, K65, K89 and K99; K82 apparently unmodified
# notes: HdeB, E. coli; A30 to A102 ordered, six C-terminal residues and the His-tag disordered; residue numbers count on the precursor; A selenomethionine variant, treated identically, was used for phasing only; also called methylated HdeB-His6; HdeB after reductive methylation; source: E. coli MG1655ΔhdeAB, purified (Ni resin, gel filtration), then reductive methylation and gel filtration; not shown: …
# B3: HdeB-His6 WT (natural protein, E. coli, UniProt P0AET2 30-108, looked up)
# chain: ANESAKDMTCQEFIDLNPKAMTPVAWWMLHEETVYKGGDTVTLNETDLTQIPKVIEYCKKNPQKNLYTFKNQASNDLPN
# notes: HdeB, E. coli periplasmic acid-stress chaperone; begins at A30; A30 to A102 ordered in the crystal plus six disordered C-terminal residues; residue numbers count on the precursor; Cloned with hdeA (hdeAB genes) in pTrc99A; primers are in the Supplementary Data; also called HdeB WT; wild type; source: E. coli MG1655ΔhdeAB, plasmid pTrcHdeABHis6, 1 mM IPTG, purified (Ni resin, gel filtration); not …
# B4: HdeB E41Q (natural protein, E. coli, UniProt P0AET2 30-108, looked up)
# chain: ANESAKDMTCQQFIDLNPKAMTPVAWWMLHEETVYKGGDTVTLNETDLTQIPKVIEYCKKNPQKNLYTFKNQASNDLPN
# notes: HdeB, E. coli, with E41Q; residue numbers count on the precursor; The methods speak of 'purified HdeB-His6 WT and E41Q samples'; probably the same construct and host as the wild type; also called E41Q mutant; source: purified mutant protein
# B5: HdeB H59N (natural protein, E. coli, UniProt P0AET2 30-108, looked up)
# chain: ANESAKDMTCQEFIDLNPKAMTPVAWWMLNEETVYKGGDTVTLNETDLTQIPKVIEYCKKNPQKNLYTFKNQASNDLPN
# notes: HdeB, E. coli, with H59N; residue numbers count on the precursor; Probably made from the HdeB-His6 construct; also called H59N mutant
# Key:
# [1] = biological target: HdeB (acid stress chaperone HdeB), wild type, C-terminal His6 (UniProt P0AET2); test: Intrinsic tryptophan fluorescence (emission maximum, intensity, acrylamide Stern-Volmer quenching constant, steady-state anisotropy) as a function of pH; settings: pH 1.5-7.5; 20 °C; Not stated as a number. It varies with the McIlvaine mixing ratio; 10 mM KCl below pH 2.6.; McIlvaine buffer (mixtures of 0.1 M citric acid and 0.2 M Na2HPO4) for pH 2.6-7; 10 mM KCl adjusted with HCl for more ac
# [2] = biological target: Asp76 (UniProt position 76, TLNETDLTQIP); test: fluorescence; settings: 20 °C; not stated (McIlvaine buffer: mixtures of 0.1 M citric acid and 0.2 M Na2HPO4; 10 mM KCl adjusted with HCl for more acid solutions); McIlvaine buffer (citric acid / Na2HPO4) for pH 2.6-7; 10 mM KCl/HCl for more acid solutions; 50 uM protein, no ligand; dimer at neutral pH, monomer below about pH 3
# [3] = biological target: HdeB E41Q, C-terminal His6 E41Q (UniProt P0AET2); test: Intrinsic tryptophan fluorescence (emission maximum, intensity, acrylamide Stern-Volmer quenching constant, steady-state anisotropy) as a function of pH; settings: pH 1.5-7.5; 20 °C; Not stated as a number. It varies with the McIlvaine mixing ratio; 10 mM KCl below pH 2.6.; McIlvaine buffer (mixtures of 0.1 M citric acid and 0.2 M Na2HPO4) for pH 2.6-7; 10 mM KCl adjusted with HCl for more ac
# [4] = biological target: the molecule itself; test: SEC; gel filtration at neutral pH (pH 7)
# [5] = biological target: the molecule itself; test: crystal structure; methylated HdeB-His6 at 15 mg/ml; 50% (v/v) polyethylene glycol 400, 0.1 M acetate pH 4.5, 0.2 M Li2SO4; 1.5 Å; dimer found with PISA
# [6] = biological target: the molecule itself; test: other fluorescence titration; emission maximum against HdeB concentration (1-100 μM, as monomers) at pH 7.5; dimer to monomers
# [7] = biological target: the molecule itself; test: other fluorescence titration; intrinsic tryptophan fluorescence (emission maximum, acrylamide quenching, anisotropy) against pH 1.5 to 7.5; 50 μM HdeB, McIlvaine buffer, 20 °C; apparent pKa; neutral side of the transition
molecule,measurement,setting,value
"HdeB (acid stress chaperone HdeB), wild type, C-terminal His6",effective pKa of dimer dissociation (midpoint of the dimer-to-monomer transition at 50 uM),[1],effective pKa ≈ 3 for dissociation of the dimer
Acid stress chaperone HdeB (HdeB-His6 WT) (Escherichia coli),pKa,[2],2.9
Acid stress chaperone HdeB H59N (His6-tagged) (Escherichia coli; H59N),pKa,[2],3.5
"HdeB E41Q, C-terminal His6 E41Q",shift of the apparent pKa of dimer dissociation relative to wild type (50 uM),[3],apparent pKa ∼ 0.5 pH units higher than that of wild type
B1,binding result,[4],binds
B2,stoichiometry N,[5],2
B3,stoichiometry N,[4],2
same,Kd,[6],< 1 µM
B4,Kd,[6],34 µM
B5,binding result,[7],binds
